One molecule from publication PMC6978347 can be followed below.

The test has as its target polymerization-deficient p62^1–102 (D69A/D73A) (human) (UniProt Q13501). In words: ITC; VP-ITC, 25 °C, 10 mM HEPES pH 7.5, 150 mM NaCl; p62 D69A/D73A in the cell (5–20 μM), partner PB1 domain in the syringe (25–100 μM); one-site model; mean of three measurements.

B1: MEKK3^43–127 (MEKK3–PB1) (domain or fragment)
chain: SDVRIKFEHNGERRIIAFSRPVKYEDVEHKVTTVFGQPLDLHYMNNELSILLKNQDDLDKAIDILDRSSSMKSLRILLLSQDRNH
For the molecule B1, the Kd turned out to be 26.8 nM.
